The numbers were not newly measured in PMC10680782, which cites them from elsewhere.

The target in this series is VE-cadherin (Homo sapiens) (UniProt P33151).

pKd: −log10 of the molar value.

Sequence of UniProt P33151 (P33151 48-599): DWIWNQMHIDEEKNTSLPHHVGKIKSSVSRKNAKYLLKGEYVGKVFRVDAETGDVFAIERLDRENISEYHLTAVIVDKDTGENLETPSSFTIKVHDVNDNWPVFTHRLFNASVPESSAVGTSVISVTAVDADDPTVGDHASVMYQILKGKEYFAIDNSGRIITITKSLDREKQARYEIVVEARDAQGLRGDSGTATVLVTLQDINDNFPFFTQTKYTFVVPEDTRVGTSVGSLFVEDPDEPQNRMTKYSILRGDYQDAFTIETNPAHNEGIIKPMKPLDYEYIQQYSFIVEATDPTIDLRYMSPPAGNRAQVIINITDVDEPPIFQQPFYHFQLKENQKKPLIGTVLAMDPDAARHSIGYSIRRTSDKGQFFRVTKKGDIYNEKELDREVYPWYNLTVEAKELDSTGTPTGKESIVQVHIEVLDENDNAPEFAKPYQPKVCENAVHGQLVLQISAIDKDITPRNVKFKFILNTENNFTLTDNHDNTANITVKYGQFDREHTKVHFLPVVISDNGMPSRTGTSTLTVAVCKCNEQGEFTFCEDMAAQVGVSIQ

The term pKd denotes the Kd on a negative log10 scale, so that one unit is a factor of ten. “fibrin β15-42 fragment 15-42 (from UniProt P02675)”: the pKd is 3.57.
